From the DeepSol protein solubility set come the findings set out here.

The nature of the data set: soluble on expression in E. coli; label from the status in PepcDB or PDB records.
Turning to “MRKLVIPKYYGRPSIGLALFGCTNRPFYHVCVFPDRALGRRYEGNILEQVGTFDPLPNQKNEKLVALNFGRLKYWIGERNAHISVPVLELLGERRNCLSGLFPIHPKSFIRAKDNRALIADQQLKVAAEAAEAEKVAQEQASTGAAATSHPQ”, the “soluble on expression in E. coli” value is listed as “not soluble”.
For the sequence “MRKSLTDIYEARVDAEELRADPAQHAVLEDLEGIRQWLEAHPERKRGLFGLFAAKEEPPKGLYLWGGVGRGKSMIMDLFTEAVEIPMKRRVHFHAFMQEVQQGMHEARKKGVEDALQPVADSVAGQVRLLAFDEMQITDITDAMVVGRLFQKLFEQGVVIVTTSNRPPEGLYENGLNREVFLPFIDLLRERMTVIELESPTDYRQHRLQGAQVFFHPARKAEQAIARIWSDLTGGDRGHPMRLPVNGRTVEIPRFANGVGRATFWGLCARPLGPADFLAIAEACRVLILEDIPRLSAENYNEAKRFVTLIDALYEARVRLIASAADEPERLYIEGEGSFEFERTASRLREMQSADWANLEHHHHHH”, the “soluble on expression in E. coli” value is listed as “not soluble”.
Take “MRKWETFIIDYMNKSKKTFVKTIDIEHHLKTLLKQEYDDDGGYFKYSSTLKNMVEEEKIQPVKARGHNHQTPPVFNEYRLVKKERRTNPTHIKKLMTDYLLFNMTAFYDEAEFEKWKFYIDRVHAFLTQNSDTKNNILKANERSFELFRNEKFLLDKEGTKFLANLGLTLSDLNCRRTYEPFVEYQPNPSKKPKNILIIENRDTFDSIKELMIDGIDTWSRITFDMVIYGEGDKIQRSFYFLEEYELEDYEVYYFGDLDARGIHICSELIKIDNRVKPFIPFYIELLNRYGHEPSTRTIERKLKQTIIDDSLKLFSSFFEGDYIDELKRYTDIIQNVQIYIPQEGLNLVILRKLGERR”: the “soluble on expression in E. coli” value is listed as “not soluble”.
In the case of “MRLCHSIILFNSLISISICSKADDPALLVASEFKEHFNVEEKQLETVEELLIKMKKLAHSRSFKGREFGHDAVEDSKKEVAISTQQGTINKKVSPFLFEGDIFLSRRQAVDILKALSKDKTKRLRRSFVSDKTATWKTMPIKYRFHESIDFYTISQIIAAIRFWEDSTCITFENVSDSPDGDYIEFFSGQGCYSMIGRNGGRQGISIGESCVKASFFVMGVIEHEIGHALGLWHEQSRPDALGYVTIERDFILPSYISDFLQRDDEIDTLGIPYDLGSVMHYGSTAFSVDQKSKTVVTRDSLYQQTIGQREKLSFYDVATINTAYCKDECKSEKTKCENGGYMRPSKCSECLCPDGLGGEKCEKNEDSKNAECGGIIKLTEEWKEIESPNYPDPGYEADQKCSWLLKAEKGKRVEIEFIEDFSFLCTSTCVDFVELKISDDLRNTGFRFCCYDKPEISFVSQTDTAIIIFRSQLSTDIGFKIQAKSNELIIKTFKNSQKTKMQILFPKLSLKNNSADAEPRTTIAPTIITTTLAPITVDAPNVWADWGEWSMCSRTCGGCGIRSRVRSCRSKKCEGRRQEFGTCNLKACPVDKHCAKLLSNNRLCNGKVCTKNDIAISSCDAPQCCPPFINVDGVCQSDQENQHDELWLSI”, the “soluble on expression in E. coli” value is “not soluble”.
In the case of “MRLITFAGHYFSRIIIMINRALVRSRVLQQAYVYYHRDDADIQSAEKELLNSLEQTYDLYLYYLLLVPELTRLHAEALEANKNKHLATEKDKNPNLRMVRNRLAEKIESCRPLWVRAEQNALNWRSEEAFLRRLLKKIHLSETFTRYMRSDATDDFEADRLFWNELMRDIILPDEELAEVMEEQSIFWDNQIQLIEKIETEEAPDIEEVEQSVRQAVADGNYQTIRQENAPIEIVKEFVLKTIRRIEQDTDPSAILLPAYKEKDDAVFGTTLLRNAIINGQEYRH”, the “soluble on expression in E. coli” value is listed as “not soluble”.
The value for “MRLKKLYLKGFKSFGRPSLIGFSDRVTAIVGPNGSGKSNIIDAIKWVFGEQSKKELRASEKFDMIFAGSENLPPAGSAYVELVFEENGEEITVARELKRTGENTYYLNGSPVRLKDIRDRFAGTGLGVDFYSIVGQGQIDRIVNASPEELRLESSKHPTSLVPRGSYQRVNESFNRFISLLFFGGEGRLNIVSEAKSILDAGFEISIRKPGRRDQKLSLLSGGEKALVGLALLFALMEIKPSPFYVLDEVDSPLDDYNAERFKRLLKENSKHTQFIVITHNKIVMEAADLLHGVTMVNGVSAIVPVEVEKILEVGSHHHHHH” was “soluble”; that for “MRLRAILASLALALTSLGAQAETIRVAIGTQDTTINCAAGGLLIRELGLLEKYLPRDGRYKDADYRVEWKNFTSGAPLTNEMVAGKLDFGAMADFPGTFNGVAFAAAGKRSLFISVLSGSTRGSGNGIVVPSGSPVQSLAELKGQTISVPFASTAHGMLLRAVAAQGWDPQRDVTIIAQPPEIAGSALQANKIAAHADFVPFAELFPNRGFARKIYDGSQANAPTFHGALVDAAYAERYPEVVVAYLRASIEANRLLAAEPEKYSELIEKVTGIEAEVNYLFHGPLGLQTRDQAWKPEYRQALATSIDTLKLLKKADRGLDVERFVDDRYIREAYRQAGLDYQAALADYAPSPLRASDARSGRPIEEFERVAQIWVKGEARVRHYASPESALADLAELKAQGKAIRAIYAQDRDSGIKLLANQAWFVRDGEGRLNAFLLREQAQDYARRHGGEVRDFAAASQQALALR” was “not soluble”; that for “MRLRHLSDPDSLPALDKSFAIERPALGLAPDAPPVRILLLYGSLRARSFSRLAVEEAARLLQFFGAETRIFDPSDLPLPDQVQSDDHPAVKELRALSEWSEGQVWCSPERHGQITSVMKAQIDHLPLEMAGIRPTQGRTLAVMQVSGGSQSFNAVNTLRLLGRWMRMFTIPNQSSIAKAFQEFDAAGRMKPSPYYDRIADVMEELVRFTALVRPHREALTDRYSERKAAGHVIDEATDLSSIAIAPQPLPESETS” was “soluble”.
The value for “MRLSEAWAERKKNLSCQRGGHGAIITSITSFSEDFMTTMPAAEPVDAAERRAISPVVVYPNGTLEAPDLARLVQAKNGMEKIDEVIIPPRGGRTFTVPKGHFFRIVSIEGPQVGDLNLWNAHDLNERFFSGKTRALHATHVSVGNRLWSNLPSLRPMATITHDTLSWYGFDEDGGGVHDVIGTRCDPYTNKLLSGGDYHHCCHSNLTNALASARGLSFREAEPHVHDVLNVFMCTGFTRDTHQYFMKASPVRPGDYLELFAEIDLIGALSACPGGDCSATHSSDMAACYPLKVEIFRPDMAVLVGWPWPDRNAYRPVELEHHHHHH” was “not soluble”; that for “MRLSILLLVAAHVANGLFGFGEKKTTQAPKISLGSEISIPHTDEDQDTGEIVIPFNDPSTTTTRRRTATTTGIPVISVGGIGLDRTRSTVDVRSFTTTINPRFTAATKRLPSSDRHSSSGCPNRIDAYTFGPDSDYAFYEQQVFKISNNRISDRTTLVEEFKDGPNQVNGALYDPEREILWLVDGRSVYGYKKDGSDNWKLQSVFPKELPSSIGFTPEAAVRWHNKHQLLLSNGGKFALYDEYWNKSLMTGRTESYFENLPDRVRGISTWNSQGHAHIYTQSLVFEYDSEMKKVTGDGVPLGDFWRC” was “not soluble”; that for “MRLSISLGESPCISSLKVRGFTASPQTPNLSISVIVTAFNRREYLRYALLSLKNQEADSFEVVVSKNFSDRVTDKFCSENGFINVTTDSSRSGERVYDALRSSHGDFILFLDDDDIFRRTKISRVSDVISKRNVAFYRNAIFPVTVDGVIATHYQPQMHDPLYLILERVSDVRLLHRHACDFNSSSMGISRSMLDSHASDLRKINLAVDTFYFALAASSRMPLFCDSMIESIYRIMPSSTSRDLRDFYLFSRFERSFLRRYVPDLERIAEIVEGSPAKPVIGRMLSLYKILQYVFEEDRVNLKPSPLDRVRFLLERPFPYSLLYSRIFRDAAMRSEFRRENRIVYGNADRRRRLEHHHHHH” was “soluble”.
The value for “MRLWVLTLVQAHFAILAVADTTVAVEETTKAANETTTPDGPHADCFLCAPTVQCGETVEGDYSSGEVNVLLMKPMEDNDYFIVKGEVFPNAMKIFIDIYKDLSVGKAQEGGNNQPRLLTFEHYFDTNLTFSRSNLHGEGVPDSFREATLPDAIKQKKPWTLMFKMKDGLSAFETGDETGWFNNDIPWNGTATTQSFNIRGGWKTTSIQ” was “not soluble”.
For the sequence “MRMEAGEAAPPAGAGGRATGGWGKWVRLNVGGTVFLTTRQTLCREQKSFLSRLCQGEELQSDRDETGAYLIDRDPTYFGPILNFLRHGKLVLDKDMAEEGVLEEAEFYNIGPLIRIIKDRMEEKDYTVTQVPPKHVYRVLQCQEEELTQMVSTMSDGWRFEQLVNIGSSYNYGSEDQAEFLCVVSKELHSTPNGLSSESSRKTKSTEEQLEEQQQQEEEVEEVEVEQVQVEADAQEKGAANPQEDDC”, the “soluble on expression in E. coli” value is given as “soluble”.
Take “MRMVDIISKKRDGKALSTEEIQFFIDGYTNGEIPDYQASALAMAIFFQDMNDQERADLTMAMVGSGDTIDLSEIEGIKVDKHSTGGVGDTTTLVLAPLVAAVGVPVAKMSGRGLGHTGGTIDKLESIEGFHIELDKKDFIDLVNRDKVAVIGQSGNLTPADKKMYALRDVTGTVNSIPLIASSIMSKKIAAGADAIVLDVKTGAGAFMKTDEDAENLAHAMVRIGNNVGRNTMAVISDMSQPLGEAIGNALEVKEAIDTLKGQGPEDLTELVLVLGSQMVVLAKQAETLDEARAKLIEVIENGAALEKFKTFLSNQGGDASIVDHPEKLPQAKYQIEVPAKTSGFVSQIVADEIGIAAMILGAGRATKEDEINLAVGLMLRKKVGDAVKEGESLVTIFADQEDVENVKAKIYENIQISDHAIAPTLVHKVITE”: the “soluble on expression in E. coli” value was “not soluble”.
As to “MRNICFVACMLFCLTSAVGKTPGNTRYLSIADSILSNVLNLYQTNDGLLTETYPVNPDQKITYLAGGTQQNGTLKASFLWPYSGMMSGCVALYKATGNKKYKKILEKRILPGMEQYWDNSRLPACYQSYPTKYGQHGRYYDDNIWIALDYCDYYQLTHKPASLEKAVALYQYIYSGWSDEIGGGIFWCEQQKEAKHTCSNAPSTVLGVKLYRLTKDAKYLEKAKETYAWTKKHLCDPTDHLYWDNINLKGKVSKEKYAYNSGQMIQAGVLLYEETGDEQYLRDAQQTAAGTDAFFRTKADKKDPTVKVHKDMAWFNVILFRGLKALYKIDKNPAYVNAMVENALHAWENYRDENGLLGRDWSGHNKEQYKWLLDNACLIEFFAEIAAALEHHHHHH”, the “soluble on expression in E. coli” value is given as “not soluble”.
In the case of “MRNPKQTRGKQTKSKIINAAFELFSEKGYTGTSSNEIASRAEVAIGSFYSYFKDKKQLFIEVLKDYYDNISKISFSNINGTISNLDDFLYESIKIALKAHEYHPEFHREVNIMELADDDIKKLIVGYEKVKFDSFKKLVEPYKNEFKNLNFNEALFLIYTTIENTVHVITFSTDTNLNKETLIKELISMIKSYINA”, the “soluble on expression in E. coli” value is listed as “not soluble”.
As for “MRPCRTGREQMTDTTMQLLSQGTDHVKVPDFDILAEGKTLSGVAERLMSLSLTDNRGFEADQLTITLDDADGQLQLPPRGARLTVLIGWKGEPLTEKGTCRFNLSMQHPFQLSLSVF”, the “soluble on expression in E. coli” value was “not soluble”.
The value for “MRPPPFPKPAHPEEALALQRALAKKVRLAGSLEGVRRIAALDASHKRGRPLVAVALLYDLEKGPLHVATALLPEEALFPYVPGLLSFREAPAYLEALAALPEAPEALLVDGQGVAHPRGLGIASHLGVHLDLPSVGVAKRLLYGRPEAPLPEEKGAAVRLLAPDGRPLGYVYRSRTGVKPLYVSPGHRVGLEEALRFVRRLPTRFRLPEPLRLAHLEAGRALKALDAAALEHHHHHH” was “not soluble”; that for “MRPSAPNIWIWKVSNLASDPRETVSGEWYAARSNLSSAARLRHGGTLLLVLDAKDNHVITKAEIKAVEISHRVGTIPREIHFPDGSLFETSDNEGVDRLLGLYLPKRAGFVHRLEQFRPRLIGITAAAVLLAYGTYKLALPAVVELAVAMTPPIVPKIMSASTMQALDQTVFSASELPLEEQNAIRVQFSRIAAHAEGSPEDYKLNFRKGGYIGPNAFALPDGTLVLTDELVELAGGDRQMIIGVLAHEIGHVEYEHSLRQLYRAAGVAGLVMLIAGDVGSAMEDILTQGGGLLALSHSRDAERQADQRSVELMRKADLDPTAIERFFALLEEKLGDKGGTSIISTHPGTPQRRKAIIDYNASLDNKPAGNLEHHHHHH” was “not soluble”.
